In patent US20020160955A1 (published 2002):
Numbering of substitutions follows the chain as printed. Numbers in names are those of the source.

T1: human IGFBP-1 (human, UniProt P08833 26-259)
T1 construct: secreted recombinant protein purified from conditioned medium
T1 sequence (looked up): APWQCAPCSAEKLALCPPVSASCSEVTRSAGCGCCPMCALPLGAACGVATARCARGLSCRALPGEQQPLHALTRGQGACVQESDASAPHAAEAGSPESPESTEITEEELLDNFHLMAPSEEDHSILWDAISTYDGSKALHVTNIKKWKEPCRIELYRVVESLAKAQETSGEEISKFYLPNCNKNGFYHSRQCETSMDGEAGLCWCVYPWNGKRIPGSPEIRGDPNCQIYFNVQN

B1: IGF-I D12A (G1S-A70V background) displayed on phage (ligand, not shown: large carriers)
chain: SPETLCGAELVAALQFVCGDRGFYFNKPTGYGSSSRRAPQTGIVDECCFRSCDLRRLEMYCAPLKPAKSV
notes: monovalent M13 phage display
B2: IGF-I T41A (G1S-A70V background) displayed on phage (ligand, not shown: large carriers)
chain: B1 chain with A12D, T41A
notes: monovalent M13 phage display
B3: IGF-I S35A (G1S-A70V background) displayed on phage (ligand, not shown: large carriers)
chain: B1 chain with A12D, S35A
notes: monovalent M13 phage display
B4: IGF-I D45A (G1S-A70V background) displayed on phage (ligand, not shown: large carriers)
chain: B1 chain with A12D, D45A
notes: monovalent M13 phage display
B5: IGF-I F49A (G1S-A70V background) displayed on phage (ligand, not shown: large carriers; small tags and cut ends)
chain: B1 chain with A12D, F49A
notes: monovalent M13 phage display; also called IGF-F49A phage

Assays:
human IGFBP-1 = target: T1, human IGFBP-1; test: competitive phage ELISA
Protocol: (§1) E. coli cells (XL1-Blue, Stratagene) freshly transformed with phagemid vector were grown overnight in 5 mL 2YT medium (Sambrook et al, supra) in the presence of M13-VCS helper phage (Stratagene). Phage particles were harvested and resuspended in PBS buffer as described in Lowman, H. B., “Phage Display of Peptide Libraries on Protein Scaffolds,” in Cabilly, S. (ed.), Combinatorial Peptide Library Protocols (Humana Press Inc.: Totowa, N.J., 1998), pp. 249-264. Then phage concentrations were normalized to yield a maximal ELISA signal of 0.2-0.4 for each mutant (Lowman, in Cabilly, S. (ed.), supra). Threefold serial dilutions of soluble competitor were prepared on non-absorbent microtiter plates (Nunc, F, 96 wells) with binding buffer (0.5% TWEEN™ 20/PBS) containing phage at the previously-determined concentrations. […] After blocking, the plates containing immobilized target were washed with 0.05% TWEEN™/PBS buffer and subsequently incubated with 80 μl/well of the premixed phage-competitor solutions for 1 hour at room temperature. After washing, bound phage was detected with 80 μl/well of a solution containing a primary rabbit anti-phage polyclonal antibody and a secondary goat anti-rabbit monoclonal antibody-horseradish peroxidase conjugate in 0.5% TWEEN 20™/PBS. o-Phenylenediamine (Sigma) and tetramethylbenzidine (Kirkegaard and Perry) were used as chromogenic substrates, resulting in product detection at 492 and 450 nm, respectively. IC₅₀ values were determined by fitting the binding data to a generic saturation curve (Lowman, in Cabilly, S. (ed.), supra). […] Numbers in Table I represent mean +standard deviation of individually assessed IC₅₀ values.

[1] = target: T2, recombinant human IGFBP-3 (human, UniProt P17936 28-291); test: competitive phage ELISA
T2 construct: secreted recombinant protein purified from conditioned medium
Protocol: as §1

[2] = target: T2, recombinant human IGFBP-3; test: competitive phage ELISA: soluble IGFBP-3 against IGFBP-3-coated wells
Protocol: The plates were then blocked with 0.5% TWEEN 20™/PBS (also used as binding buffer) for 2 hours at room temperature (proteinaceous blocking agents like bovine serum albumin were avoided to prevent potential IGF or IGFBP contamination). E. coli cells (XL1-Blue, Stratagene) freshly transformed with phagemid vector were grown overnight in 5 mL 2YT medium (Sambrook et al, supra) in the presence of M13-VCS helper phage (Stratagene). Phage particles were harvested and resuspended in PBS buffer as described in Lowman, H. B., “Phage Display of Peptide Libraries on Protein Scaffolds,” in Cabilly, S. (ed.), Combinatorial Peptide Library Protocols (Humana Press Inc.: Totowa, N.J., 1998), pp. 249-264. Then phage concentrations were normalized to yield a maximal ELISA signal of 0.2-0.4 for each mutant (Lowman, in Cabilly, S. (ed.), supra). Threefold serial dilutions of soluble competitor were prepared on non-absorbent microtiter plates (Nunc, F, 96 wells) with binding buffer (0.5% TWEEN™ 20/PBS) containing phage at the previously-determined concentrations.

T2 sequence (P17936 28-291 limits assumed): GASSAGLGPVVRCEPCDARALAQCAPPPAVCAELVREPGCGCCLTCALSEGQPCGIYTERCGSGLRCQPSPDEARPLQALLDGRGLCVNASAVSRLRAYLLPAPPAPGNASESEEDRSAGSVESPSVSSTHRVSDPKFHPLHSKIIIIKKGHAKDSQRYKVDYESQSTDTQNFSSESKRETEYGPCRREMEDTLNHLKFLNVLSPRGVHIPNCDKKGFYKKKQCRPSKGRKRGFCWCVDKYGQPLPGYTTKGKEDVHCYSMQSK

Binder	binding result (human IGFBP-1)	binding result [1]	further results
B1	binds	–	–
B2	–	binds	–
B3	–	binds	–
B4	binds	–	–
B5	–	–	binding result [2]: binds
